The results in this text go back to PMC6208443 (2018).

T1: RsAGDP1 AGD12 (residues 26–180) (Raphanus sativus)
T1 chain: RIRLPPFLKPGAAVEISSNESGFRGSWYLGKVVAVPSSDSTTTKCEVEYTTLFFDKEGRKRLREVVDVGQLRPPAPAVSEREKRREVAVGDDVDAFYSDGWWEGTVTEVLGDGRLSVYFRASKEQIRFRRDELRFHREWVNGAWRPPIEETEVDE

B1: H3K9me3 peptide (ITC) (peptide)
chain: ARTKQTARKSTGGKA
modifications: trimethyl-lysine at K9
B2: H3K9me2 peptide (ITC) (peptide)
chain: ARTKQTARKSTGGKA
modifications: dimethyl-lysine at K9
B3: H3K9me1 peptide (ITC) (peptide)
chain: ARTKQTARKSTGGKA
modifications: monomethyl-lysine at K9
B4: H3K4me3K9me2 peptide (peptide)
chain: ART[Lys(Me3)]QTAR[Lys(Me2)]STGGKA
B5: H3K4me2K9me2 peptide (peptide)
chain: ART[Lys(Me2)]QTAR[Lys(Me2)]STGGKA
B6: H3K4me1K9me2 peptide (peptide)
chain: ART[Lys(Me)]QTAR[Lys(Me2)]STGGKA

Square brackets hold non-standard residues; d marks the D form. Ends that are not written are not given here. Lys(Me3) = C[N+](C)(C)CCCC[C@H](N)C(=O)O; Lys(Me2) = CN(C)CCCC[C@H](N)C(=O)O; Lys(Me) = CNCCCC[C@H](N)C(=O)O

The first assay addresses RsAGDP1 AGD56. As to the kind of experiment: ITC. (In general: ITC needs no label: the signal is the heat of the interaction.)
In general, Kd refers to a measure of binding affinity in units of concentration. A lower Kd goes with a tighter complex. Regarding B1, binding was characterised by a dissociation constant (Kd) of 52.9 µM.

B2 came in with a Kd of 26.2 µM.

B3: the Kd turned out to be 50 µM.

A further assay concerns the target T1, RsAGDP1 AGD12 (residues 26–180). The assay can be described thus: ITC.
In turn, B4 yielded a Kd of 103 µM.

For B1, binding was characterised by a dissociation constant (Kd) of 101 µM.

B5: the Kd was 25.5 µM.

The molecule B6 displayed a Kd of 23.4 µM.

B3 had a Kd of 84.7 µM.

Another assay deals with RsAGDP1 AGD34. As to the kind of experiment: ITC.
On to B1, for which binding was characterised by a dissociation constant (Kd) of 10.7 µM.

With B3, binding was characterised by a dissociation constant (Kd) of 10.1 µM.
